Assay results as given in PMC3681689.

Key:
[1] = molecular target: monothiol glutaredoxin 5 (Grx5) (S. cerevisiae) (UniProt Q02784); assay: co-IP
[2] = molecular target: N-terminally His-tagged S. cerevisiae Grx5 (recombinant) (S. cerevisiae) (UniProt Q02784); assay: MST

Row | Substance | amount bound to anti-Grx5 immunobeads relative to Ssc1 [1] [fold] | Ka [2] [M⁻¹]
1 | Ssq1-glutathione S-transferase (GST) fusion protein (natural protein) | > 4 | 
2 | recombinant His-tagged S. cerevisiae Ssq1 (natural protein) |  | 440000
